Data as given in patent US20190359687A1 (Bayer, published 2019).
Substitutions are numbered along the chain they refer to. No end group written: not given here. *: point of attachment. Biotin = O=C1N[C@H]2[C@H](CS[C@H]2CCCCC(=O)*)N1

T1: GP11 (human)
T1 peptide: Biotin-VYPPEEET

T2: GP7 (human)
T2 peptide: Biotin-SVRTVYPP

T3: GP12 (human)
T3 peptide: Biotin-YPPEEETG

T4: GP10 (human)
T4 peptide: Biotin-TVYPPEEE

T5: GP13 (human)
T5 peptide: Biotin-PPEEETGE

T6: GP5-12 (human, biotin at the N-terminus)
T6 construct: GP5 with alanine at position 12 (P12A), already in the entry
T6 peptide: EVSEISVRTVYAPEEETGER

T7: GP5-4 (human, biotin at the N-terminus)
T7 construct: GP5 with alanine at position 4 (E4A), already in the entry
T7 peptide: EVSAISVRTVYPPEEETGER

T8: GP5-18 (human, biotin at the N-terminus)
T8 construct: GP5 with alanine at position 18 (G18A), already in the entry
T8 peptide: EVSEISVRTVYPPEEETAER

T9: GP5-10 (human, biotin at the N-terminus)
T9 construct: GP5 with alanine at position 10 (V10A), already in the entry
T9 peptide: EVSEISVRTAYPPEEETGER

T10: GP5-11 (human, biotin at the N-terminus)
T10 construct: GP5 with alanine at position 11 (Y11A), already in the entry
T10 peptide: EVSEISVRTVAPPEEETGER

T11: GP5-3 (human, biotin at the N-terminus)
T11 construct: GP5 with alanine at position 3 (S3A), already in the entry
T11 peptide: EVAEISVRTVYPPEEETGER

T12: GP5-15 (human, biotin at the N-terminus)
T12 construct: GP5 with alanine at position 15 (E15A), already in the entry
T12 peptide: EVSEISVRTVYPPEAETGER

T13: GP5-19 (human, biotin at the N-terminus)
T13 construct: GP5 with alanine at position 19 (E19A), already in the entry
T13 peptide: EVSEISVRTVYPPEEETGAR

T14: GP5-7 (human, biotin at the N-terminus)
T14 construct: GP5 with alanine at position 7 (V7A), already in the entry
T14 peptide: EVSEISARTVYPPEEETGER

T15: GP5-6 (human, biotin at the N-terminus)
T15 construct: GP5 with alanine at position 6 (S6A), already in the entry
T15 peptide: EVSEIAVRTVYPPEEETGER

T16: GP5-17 (human, biotin at the N-terminus)
T16 construct: GP5 with alanine at position 17 (T17A), already in the entry
T16 peptide: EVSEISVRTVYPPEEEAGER

T17: GP5-16 (human, biotin at the N-terminus)
T17 construct: GP5 with alanine at position 16 (E16A), already in the entry
T17 peptide: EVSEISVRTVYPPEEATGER

T18: GP5-1 (human, biotin at the N-terminus)
T18 construct: GP5 with alanine at position 1 (E1A), already in the entry
T18 peptide: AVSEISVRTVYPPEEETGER

T19: GP5-14 (human, biotin at the N-terminus)
T19 construct: GP5 with alanine at position 14 (E14A), already in the entry
T19 peptide: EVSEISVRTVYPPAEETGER

T20: GP5-13 (human, biotin at the N-terminus)
T20 construct: GP5 with alanine at position 13 (P13A), already in the entry
T20 peptide: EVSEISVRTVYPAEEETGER

T21: GP5-5 (human, biotin at the N-terminus)
T21 construct: GP5 with alanine at position 5 (I5A), already in the entry
T21 peptide: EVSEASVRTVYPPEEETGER

T22: GP5-2 (human, biotin at the N-terminus)
T22 construct: GP5 with alanine at position 2 (V2A), already in the entry
T22 peptide: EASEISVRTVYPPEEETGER

T23: GP5-20 (human, biotin at the N-terminus)
T23 construct: GP5 with alanine at position 20 (R20A), already in the entry
T23 peptide: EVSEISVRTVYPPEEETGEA

T24: GP5-9 (human, biotin at the N-terminus)
T24 construct: GP5 with alanine at position 9 (T9A), already in the entry
T24 peptide: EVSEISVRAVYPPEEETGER

T25: GP5-8 (human, biotin at the N-terminus)
T25 construct: GP5 with alanine at position 8 (R8A), already in the entry
T25 peptide: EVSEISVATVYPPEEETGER

T26: human glycophorin A in the red blood cell membrane (human, UniProt P02724 20-150)
T26 construct: whole, on cells; used for intact RBC, isolated RBC membranes and transfected cells; the assay field tells which; also called GPA; hGPA
T26 sequence (looked up): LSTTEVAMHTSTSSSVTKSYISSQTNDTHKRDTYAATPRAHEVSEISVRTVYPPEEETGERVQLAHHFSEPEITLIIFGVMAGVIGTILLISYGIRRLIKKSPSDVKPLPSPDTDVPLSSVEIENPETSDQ

T27: purified human glycophorin A protein (Sigma, cat # G5017) (human, UniProt P02724 20-150)
T27 construct: mature; also called Sigma hGPA; Sigma GPA
T27 sequence (looked up): T26 sequence (looked up)

T28: asialo hGPA (desialylated human GPA) (human, UniProt P02724 20-150, desialylated)
T28 construct: mature; also called asialo-GPA
T28 sequence (looked up): T26 sequence (looked up)

T29: recombinant human GPA ectodomain (human, UniProt P02724 20-91)
T29 construct: also called recombinant hGPA ECD; recGPA
T29 sequence: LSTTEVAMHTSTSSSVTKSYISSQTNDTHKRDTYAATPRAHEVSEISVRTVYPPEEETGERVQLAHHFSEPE

B1: TPP-7790 Fab (Fab, V domains shown)
VH: EVQLVQSGAEVKKPGASVKVSCKASGYTFTTYAIHWVRQAPGQGLEWMGYINPSSGYTRYNPKFKHRVTMTRDKSTSTAYMELRSLRSDDTAVYYCWTGTRDYWGQGTTVTVSS
VL: DIQLTQSPSFLSASVGDRVTITCRASSSVRYIYWFQQKPGKAPKLLIYATSFLQSGVPSRFSGSGSGTEYTLTISSLQPEDFATYYCHQRNSFPYTFGQGTKLEIK
notes: Tested as Fab with a 6xHIS tag
B2: TPP-7792 Fab (Fab, V domains shown)
VH: B1 VH with H66G
VL: B1 VL with L53R
notes: as for B1
B3: TPP-7792 scFv (scFv)
scFv: DIQLTQSPSFLSASVGDRVTITCRASSSVRYIYWFQQKPGKAPKLLIYATSFRQSGVPSRFSGSGSGTEYTLTISSLQPEDFATYYCHQRNSFPYTFGQGTKLEIKEVQLVQSGAEVKKPGASVKVSCKASGYTFTTYAIHWVRQAPGQGLEWMGYINPSSGYTRYNPKFKGRVTMTRDKSTSTAYMELRSLRSDDTAVYYCWTGTRDYWGQGTTVTVSS
notes: as m101 (tag, order, linker)
B4: 13G7G1/C3 (antibody, V domains shown)
VH: RVQLQQSGAELARPGASVKMSCKASGYTFTNYAMHWVKQRPGQGLEWIGYINPKSDNTNYNQKFKDKATLTTDKSSATAYMQLSSLTSDDSAVYYCQTGTRDYWGQGTTLTVSS
VL: HIVLTQSPAIMSASPGEKVTIFCSASSSITYVYWFQQKPGTSPKLWIYSTSSLPSGVPARFSGSGSGTSYSLTISRMEAEDAATYYCHQRNSYPFTFGSGTKLEIK
notes: as m8; also called TPP-3423

Columns and labels:
GP11 = target: T1, GP11; experiment: peptide ELISA, summary of Table 23
Description: (§1) These peptides were attached to the surface of a streptavidin coated plate via a biotin moiety that was present at the N-terminus of each peptide.

GP7 = target: T2, GP7; experiment: peptide ELISA, summary of Table 23
Description: as §1

GP12 = target: T3, GP12; experiment: peptide ELISA, summary of Table 23
Description: as §1

GP10 = target: T4, GP10; experiment: peptide ELISA, summary of Table 23
Description: as §1

GP13 = target: T5, GP13; experiment: peptide ELISA, summary of Table 23
Description: as §1

GP5-12 = target: T6, GP5-12; experiment: ELISA, biotin-peptide on streptavidin plate, Fab 0.5 ug/ml
GP5-4 = target: T7, GP5-4; experiment: as above
GP5-18 = target: T8, GP5-18; experiment: as above
GP5-10 = target: T9, GP5-10; experiment: as above
GP5-11 = target: T10, GP5-11; experiment: as above
GP5-3 = target: T11, GP5-3; experiment: as above
GP5-15 = target: T12, GP5-15; experiment: as above
GP5-19 = target: T13, GP5-19; experiment: as above
GP5-7 = target: T14, GP5-7; experiment: as above
GP5-6 = target: T15, GP5-6; experiment: as above
GP5-17 = target: T16, GP5-17; experiment: as above
GP5-16 = target: T17, GP5-16; experiment: as above
GP5-1 = target: T18, GP5-1; experiment: as above
GP5-14 = target: T19, GP5-14; experiment: as above
GP5-13 = target: T20, GP5-13; experiment: as above
GP5-5 = target: T21, GP5-5; experiment: as above
GP5-2 = target: T22, GP5-2; experiment: as above
GP5-20 = target: T23, GP5-20; experiment: as above
GP5-9 = target: T24, GP5-9; experiment: as above
GP5-8 = target: T25, GP5-8; experiment: as above
[1] = target: T26, human glycophorin A in the red blood …; experiment: FACS on RBC of huGPA/HemA transgenic mice (muTGRBC), 1E+6 RBC/mL, scFv titrated
[2] = target: T27, purified human glycophorin A protein …; experiment: ELISA, hGPA
[3] = target: T30, Cynomolgus monkey glycophorin A on Cynomolgus monkey red blood cells (Cynomolgus monkey); experiment: FACS, Cyno RBC
T30 construct: whole, on cells; also called Cyno RBC; Cyno GPA
Protocol: (§2) Hybridomas were generated from the spleen cells of these mice and these hybriomas were screened first by fluorescence activated cell sorting (FACS) against isolated human and monkey (Cynomolgus monkey and Rhesus monkey) red blood cells (RBC) and then by ELISA against purified human glycophorin A protein (GPA). Isolated RBC were prepared from whole blood from normal human, cynomolgus monkey, and beagle dog, were anticoagulant with sodium heparin (Bioreclamation). 2-3 mL of whole blood was loaded gently on the top of 3 mL Ficoll Plus (Sigma Aldrich) then centrifuged at 500 g for 20 min at room temperature (RT). The RBC pellets were washed 3 times with 10 mL of PBS, and centrifuge 400 g for 10 min at RT. RBC pellets were re-suspended in PBS at the same total volume as the original blood volume to achieve the same RBC cell density as in whole blood and stored at 4° C. Purified human glycophorin A protein was obtained from Sigma Aldrich and coated on ELISA plates at 2 ug/ml. Binding of antibodies to human GPA was detected using appropriate secondary antibodies using methods well known in the art.

[4] = target: T28, asialo hGPA (desialylated human GPA); experiment: ELISA, purified IgG
Protocol: (§3) The “Sigma GPA” is a crude preparation of human GPA extracted from human red blood cells and is therefore representative of the highly glycosylated form of the native protein.
(§4) EC 50 values were determined from a dilution curve of the antibody. Sigma GPA is partially purified GPA extracted from human red blood cells and purchased from Sigma Chemical Company (cat # G5017), asialo hGPA is human GPA that was desialylated and ECD is the recombinantly expressed ectodomain which is the extracellular portion of GPA.

[5] = target: T27, purified human glycophorin A protein …; experiment: ELISA, purified IgG
Protocol: as §3, §4

[6] = target: T29, recombinant human GPA ectodomain; experiment: ELISA, purified IgG
Protocol: as §3, §4

dog red blood cells = target: T31, dog red blood cells (dog); experiment: FACS, dog RBC
T31 construct: also called dog RBC

[7] = target: T29, recombinant human GPA ectodomain; experiment: SPR, IgG
[8] = target: T26, human glycophorin A in the red blood …; experiment: FACS, hu RBC
Protocol: as §2

Binder | binding result (GP11) | binding result (GP7) | binding result (GP12) | binding result (GP10) | binding result (GP13) | binding signal (ELISA) (GP5-12) | binding signal (ELISA) (GP5-4) | binding signal (ELISA) (GP5-18) | binding signal (ELISA) (GP5-10) | binding signal (ELISA) (GP5-11) | binding signal (ELISA) (GP5-3) | binding signal (ELISA) (GP5-15) | binding signal (ELISA) (GP5-19) | binding signal (ELISA) (GP5-7) | binding signal (ELISA) (GP5-6) | binding signal (ELISA) (GP5-17) | binding signal (ELISA) (GP5-16) | binding signal (ELISA) (GP5-1) | binding signal (ELISA) (GP5-14) | binding signal (ELISA) (GP5-13) | also measured
B1 | no binding | no binding | no binding | no binding | no binding | 6450 | 6540 | 6400 | 5910 | 1 | 6680 | 6720 | 6470 | 6700 | 6520 | 6870 | 6540 | 6210 | 1280 | 6570 | binding signal (ELISA) (GP5-5): 6270; binding signal (ELISA) (GP5-2): 6360; binding signal (ELISA) (GP5-20): 6440; binding signal (ELISA) (GP5-9): 6810; binding signal (ELISA) (GP5-8): 6790
B2 | no binding | no binding | no binding | no binding | no binding | 6790 | 6630 | 7150 | 6210 | 2 | 7370 | 7250 | 6980 | 6690 | 6660 | 7410 | 6680 | 6800 | 2670 | 6960 | binding signal (ELISA) (GP5-5): 7400; binding signal (ELISA) (GP5-2): 6700; binding signal (ELISA) (GP5-20): 7170; binding signal (ELISA) (GP5-9): 7270; binding signal (ELISA) (GP5-8): 6700
B3 | – | – | – | – | – | – | – | – | – | – | – | – | – | – | – | – | – | – | – | – | EC50 (read off the curve) [1]: ~20 µg/mL
B4 | – | – | – | – | – | – | – | – | – | – | – | – | – | – | – | – | – | – | – | – | EC50 [2]: 0.402 nM; FACS signal [3]: 294 relative flourescence units; EC50 [4]: 1.24 nM; EC50 [5]: 1.45 nM; EC50 [6]: 1.43 nM; FACS signal (dog red blood cells): 1.14 relative flourescence units; Kd [7]: 5.3 nM; koff [7]: 0.000405 s⁻¹; kon [7]: 76400 M⁻¹ s⁻¹; t½ [7]: 28.5 min; FACS signal [8]: 2880 relative flourescence units
